Assay [1] has as its target HLA-B*15:03. The experiment in a line: IEDB peptide-MHC binding, purified MHC/competitive/radioactivity; filed as Kd, often an IC50 or EC50 that approximates it; ≥ and ≤ were set here for values at or beyond the usual limits of such assays.
Assay [2] concerns the target HLA-A*11:01. The experiment in a line: IEDB peptide-MHC binding, purified MHC/direct/fluorescence; filed as Kd, often an IC50 or EC50 that approximates it; ≥ and ≤ were set here for values at or beyond the usual limits of such assays.
In assay [3] the target is HLA-A*31:01. Put plainly: IEDB peptide-MHC binding, purified MHC/competitive/fluorescence; filed as Kd, often an IC50 or EC50 that approximates it; ≥ and ≤ were set here for values at or beyond the usual limits of such assays.
In assay [4] the target is HLA-A*68:01. The experiment in a line: IEDB peptide-MHC binding, purified MHC/competitive/radioactivity; filed as Kd, often an IC50 or EC50 that approximates it; ≥ and ≤ were set here for values at or beyond the usual limits of such assays.
Assay [5] addresses HLA-A*32:01. The assay is described as above. Particulars: source organism: Vaccinia virus WR.
For assay [6], the target named is HLA-A*30:01. The assay is described as above. Particulars: source organism: Vaccinia virus WR.
For assay [7], the target named is HLA-B*15:01. Described as above.
Assay [8] deals with HLA-B*08:01. The assay is described as above.
Assay [9] has as its target HLA-A*02:03. Described as above.
For assay [10], the target named is HLA-A*02:02. The description is as above.
In assay [11] the target is HLA-A*02:06. The description is as above.
Assay [12] has as its target HLA-B*54:01. Described as above.
Assay [13] concerns the target HLA-B*07:02. Described as above.
For assay [14], the target named is HLA-B*35:01. The assay is described as above.
In assay [15] the target is HLA-B*53:01. The description is as above.
For assay [16], the target named is HLA-B*51:01. Described as above.
The target of assay [17] is HLA-A*03:01. The experiment in a line: IEDB peptide-MHC binding, purified MHC/direct/fluorescence; filed as Kd, often an IC50 or EC50 that approximates it; ≥ and ≤ were set here for values at or beyond the usual limits of such assays.
The target in assay [18] is HLA-B*48:01. The assay is described as above. Particulars: source organism: Yellow fever virus.
Assay [19] has as its target HLA-A*02:01. The experiment in a line: IEDB peptide-MHC binding, purified MHC/competitive/radioactivity; filed as Kd, often an IC50 or EC50 that approximates it; ≥ and ≤ were set here for values at or beyond the usual limits of such assays.
For assay [20], the target named is HLA-A*02:01. Put plainly: IEDB peptide-MHC binding, purified MHC/competitive/fluorescence; filed as Kd, often an IC50 or EC50 that approximates it; ≥ and ≤ were set here for values at or beyond the usual limits of such assays. Particulars: source organism: Vaccinia virus L-IPV.
Assay [21] concerns the target HLA-A*31:01. Put plainly: IEDB peptide-MHC binding, purified MHC/competitive/radioactivity; filed as Kd, often an IC50 or EC50 that approximates it; ≥ and ≤ were set here for values at or beyond the usual limits of such assays. Particulars: source organism: Vaccinia virus Copenhagen.
Assay [22] addresses HLA-A*33:01. The assay is described as above. The settings on record: source organism: Vaccinia virus Copenhagen.
Assay [23] concerns the target HLA-A*03:01. Described as above. The settings on record: source organism: Vaccinia virus Copenhagen.
Assay [24] addresses HLA-A*11:01. The description is as above. The settings on record: source organism: Vaccinia virus Copenhagen.
[25] abbreviates: source organism: Vaccinia virus WR.
Where [26] appears, read: source organism: Vaccinia virus Copenhagen.
[27] abbreviates: source organism: Yellow fever virus 1899/81.
Where [28] appears, read: source organism: Dengue virus 1 Brazil/97-11/1997.
Where [29] appears, read: source organism: Vibrio vulnificus.
Setting [30] is: source organism: SARS coronavirus Tor2.
The mark [31] stands for this setting: source organism: Triticum aestivum.
Where [32] appears, read: source organism: Mammarenavirus juninense.
Where [33] appears, read: source organism: Orthohantavirus dobravaense.

Among the data in the Immune Epitope Database (IEDB) are Kd values, retold here.

A value given as a limit tells only on which side of the number the result lay.

For AMKVDANYF, in [1] (setting [25]), the Kd was 0.149 nM.
As for ANVNARNRF, the Kd in [1] (setting [25]) worked out at 552 nM.
On to AVSMANIFR, for which the Kd in assay [2] (source organism: Dengue virus 1 Singapore/S275/1990) is 8.9 nM; in assay [3] (source organism: dengue virus type 1), 1.37 nM; in [4] (source organism: Dengue virus 2 Jamaica/1409/1983), 55.4 nM.
Turning to ELRDYFEQI, the Kd is ≥ 77800 nM in assay [5]; ≥ 38000 nM in assay [6]; 80.2 nM in assay [1] (setting [25]); 2190 nM in assay [7] (setting [25]); 12.5 nM in [8] (setting [25]).
For FSVSFSPSL, the Kd in assay [1] (setting [26]) was 21.7 nM.
For the sequence GTHPFSRIR, the Kd turned out to be 326 nM in [2] (setting [27]) and 6 nM in [3] (setting [27]).
As for ILFYFANGI, the Kd came out at 92.5 nM in assay [5] and 139 nM in assay [1] (setting [25]).
For the sequence IMAIGIVSIL, the Kd in [7] (setting [28]) was found to be 27.2 nM; in assay [8] (setting [28]) it was 445 nM.
Regarding IMFAKTLDF, the Kd in assay [5] worked out at 6.82 nM; in assay [1] (setting [25]), 0.311 nM.
Regarding IMRNFLRSI, the Kd in [9] (setting [25]) came to 0.398 nM; in assay [10] (setting [25]), 485 nM; in assay [1] (setting [25]) it was 106 nM; in assay [11] (setting [25]), 3920 nM.
In the case of IPIGMQFDKV, the Kd turned out to be 0.0404 µM in assay [12] (setting [25]); 4.91 µM in assay [13] (setting [25]); 5280 nM in [14] (setting [25]); 590 nM in assay [15] (setting [25]); 0.394 µM in [16] (setting [25]).
For IPSTVKTNLY, in that order: 10.3 µM, ≥ 25.6 µM, 248 nM, 213 nM and ≥ 69.6 µM.
Turning to KGNVSALVK, the Kd is 1160 nM in assay [17] (setting [29]), 184 nM in assay [2] (setting [29]) and ≥ 20000 nM in assay [3] (source organism: Vibrio vulnificus YJ016).
With KPIMSMGDII, the Kd was determined as 1.98 µM in [12] (setting [25]); 0.00649 µM in [13] (setting [25]); 622 nM in assay [14] (setting [25]); 90.7 nM in assay [15] (setting [25]); 0.425 µM in assay [16] (setting [25]).
On to KPTTFMLKY, for which the Kd in [12] (setting [30]) turned out to be 5.22 µM; in assay [13] (setting [30]), 11.4 µM; in assay [14] (setting [30]), 41.3 nM; in assay [15] (setting [30]), 24.7 nM; in assay [16] (setting [30]), 13 µM.
In the case of KRVVASLMR, the Kd in assay [18] was ≥ 20 µM.
For KTHESHLVR, the Kd is 35.6 nM in assay [2] (source organism: Yellow fever virus 17D) and 21.2 nM in [3] (source organism: Yellow fever virus).
Take LLTTPKFTV: the Kd in assay [19] (source organism: Human alphaherpesvirus 1 strain 17) came out at 500 nM.
Turning to LMWITQCFL, the Kd in [19] (source organism: Homo sapiens) was determined as 78 nM.
On to LPEETNIGCA, for which the dissociation constant Kd in assay [12] (setting [25]) was 0.243 µM; in [13] (setting [25]), ≥ 20.7 µM; in [14] (setting [25]), 8680 nM; in assay [15] (setting [25]), 2080 nM; in assay [16] (setting [25]) it was ≥ 69.6 µM.
Consider LSISCPNSL, for which, in assay [1] (setting [25]), the Kd was determined as 256 nM.
With MCISLSTAI, the Kd in assay [12] (source organism: Mammarenavirus lassaense) stood at 0.601 µM.
For MKITRPRHF, in assay [1] (setting [25]), the dissociation constant Kd stood at 1.04 nM.
Turning to MPTDMLKLF, the Kd in assay [12] (setting [25]) is 0.0286 µM; in assay [13] (setting [25]), 0.0178 µM; in assay [14] (setting [25]), 0.163 nM; in assay [15] (setting [25]), 0.141 nM; in assay [16] (setting [25]) it was 0.0992 µM.
In the case of NLFDIPLLTV, the Kd in assay [20] is ≤ 0.1 nM; in assay [12] (setting [26]), 18.8 µM; in assay [13] (setting [26]), 17.1 µM; in [21] it was ≥ 22.3 µM; in [9] (setting [26]) it was 0.253 nM; in assay [10] (setting [26]) it was 0.0997 nM. Moreover, the Kd was 11.8 µM in assay [22]; ≥ 48 µM in assay [23]; ≥ 69900 nM in [14] (setting [26]); ≥ 21900 nM in assay [4] (setting [26]); ≥ 69.8 µM in assay [24]; ≥ 69900 nM in [15] (setting [26]). Further, the results for the Kd in assay [11] (setting [26]) and in assay [16] (setting [26]) were 1.55 nM and ≥ 69.6 µM, respectively.
As for NMGVAMNLF, the Kd in assay [1] (setting [25]) is 998 nM.
On to PPCQCTVQEF, for which the Kd in assay [12] (setting [25]) was ≥ 69.9 µM; in [13] (setting [25]), ≥ 45.3 µM; in assay [14] (setting [25]), ≥ 23400 nM; in [15] (setting [25]) it was 5150 nM; in assay [16] (setting [25]), ≥ 69.6 µM.
With QPEKEIPEY, the Kd is ≥ 43.7 µM in [12] (setting [25]); ≥ 36.9 µM in [13] (setting [25]); 15.6 nM in assay [14] (setting [25]); 45.2 nM in assay [15] (setting [25]); ≥ 37.7 µM in assay [16] (setting [25]).
Consider QPFRPQQPY, for which the Kd is ≥ 78.1 µM in assay [12] (setting [31]); ≥ 77.5 µM in [13] (setting [31]); 296 nM in [14] (setting [31]); ≥ 35200 nM in assay [15] (setting [31]); ≥ 77.5 µM in assay [16] (setting [31]).
For the sequence RKNHIYNSF, in assay [1] (setting [25]), the Kd was 0.132 nM.
Still for that read-out and setting: to RQFEKDRSF belongs 0.143 nM.
As for RSKDTHVFA, the Kd in assay [6] was found to be 0.0187 nM; in [1] (setting [25]) it was 182 nM.
Consider SQRFIFNII, for which the Kd in assay [5] stood at 1870 nM; in assay [1] (setting [25]), 299 nM; in [8] (setting [25]), 653 nM.
On to TPDNFSSLI, for which the dissociation constant (Kd) in assay [12] (setting [32]) is ≥ 78.1 µM; in assay [13] (setting [32]), 11.3 µM; in assay [14] (setting [32]), 15300 nM; in assay [15] (setting [32]), 372 nM; in assay [16] (setting [32]), 1.71 µM.
In the case of TPKYKFVRI, the Kd in assay [12] (setting [30]) is ≥ 46.2 µM; in [13] (setting [30]), ≥ 10 µM; in [14] (setting [30]) it was ≥ 77400 nM; in assay [15] (setting [30]), 16000 nM; in assay [16] (setting [30]) it was 16.1 µM.
TPLISFFGLF: the Kd in assay [12] (setting [25]) was found to be 3.96 µM; in [13] (setting [25]), 1.14 µM; in assay [14] (setting [25]), 416 nM; in assay [15] (setting [25]) it was 31.1 nM; in [16] (setting [25]), 4.97 µM.
In the case of VLFMVAWGK, the values for the Kd in [17] (source organism: Amur virus), in assay [2] (source organism: Amur virus) and in assay [3] (source organism: Hantaan virus 76-118) were 2260 nM, 76 nM and 161 nM, respectively.
Consider VLKGLYNFA, for which, in assay [19] (source organism: Lassa virus Josiah), the Kd was found to be 6250 nM.
Take VPEFAKQYV: the equilibrium dissociation constant (Kd) is 1.6 µM in assay [12] (setting [25]); 0.128 µM in [13] (setting [25]); ≥ 32600 nM in assay [14] (setting [25]); 5150 nM in assay [15] (setting [25]); 0.718 µM in assay [16] (setting [25]).
Take VQSFKINIF: the Kd in assay [1] (setting [25]) was determined as 51.3 nM.
As to VTYDYIIPK, the Kd in assay [17] (setting [33]) stood at 50.8 nM; in [2] (setting [33]), 1.2 nM; in assay [3] (source organism: Kurkino virus), 42.4 nM.
For VVYIILAPK, the Kd in assay [2] (source organism: Mycobacterium tuberculosis) stood at 27.4 nM; in [3] (source organism: Mycobacterium leprae), 300 nM.
Consider YQHFVARVF, for which, in assay [1] (setting [25]), the dissociation constant (Kd) was 0.399 nM.

A word on the Kd: it is the concentration at which binding is half-saturated.
